According to article PMC3866925, “Functional characterization of two members of histidine phosphatase superfamily in Mycobacterium tuberculosis” (BMC Microbiology, 2013):

B1: C-His-Rv2135c (enzyme)
chain: MTVILLRHARSTSNTAGVLAGRSGVDLDEKGREQATGLIDRIGDLPIRAVASSPMLRCQRTVEPLAEALCLEPLIDDRFSEVDYGEWTGRKIGDLVDEPLWRVVQAHPSAAVFPGGEGLAQVQTRAVAAVREHDRRLADQHGHDVLWLACTHGDVIKAVIADAFGMHLDSFQRITADPGSVSVVRYTQLRPFVLHVNHTGARLAPALQAAASAQGASPEPNAAVPPGDAVIGGSTD
notes: also called C-His-Rv2315c; not shown: His6, C-terminal, kept
B2: C-His-Rv0489 (enzyme)
chain: MANTGSLVLLRHGESDWNALNLFTGWVDVGLTDKGQAEAVRSGELIAEHDLLPDVLYTSLLRRAITTAHLALDSADRLWIPVRRSWRLNERHYGALQGLDKAETKARYGEEQFMAWRRSYDTPPPPIERGSQFSQDADPRYADIGGGPLTECLADVVARFLPYFTDVIVGDLRVGKTVLIVAHGNSLRALVKHLDQMSDDEIVGLNIPTGIPLRYDLDSAMRPLVRGGTYLDPEAAAAGAAAVAGQGRG
notes: also called C-His-Rv0489c; cofactor dependent phosphoglycerate mutase of M. tuberculosis; not shown: His6, C-terminal, kept

Target: the molecule itself
Test: SEC

| Protein | stoichiometry N |
| --- | --- |
| B1 | 4 |
| B2 | 2 |
